Experimental findings from IntAct's records for PubMed 26040717 are described below.

To fix the notation:
B1: Autophagy-related protein 8 (Saccharomyces cerevisiae), P38182 (parent)
chain: MKSTFKSEYPFEKRKAESERIADRFKNRIPVICEKAEKSDIPEIDKRKYLVPADLTVGQFVYVIRKRIMLPPEKAIFIFVNDTLPPTAALMSAIYQEHKDKDGFLYVTYSGENTFGR
partner: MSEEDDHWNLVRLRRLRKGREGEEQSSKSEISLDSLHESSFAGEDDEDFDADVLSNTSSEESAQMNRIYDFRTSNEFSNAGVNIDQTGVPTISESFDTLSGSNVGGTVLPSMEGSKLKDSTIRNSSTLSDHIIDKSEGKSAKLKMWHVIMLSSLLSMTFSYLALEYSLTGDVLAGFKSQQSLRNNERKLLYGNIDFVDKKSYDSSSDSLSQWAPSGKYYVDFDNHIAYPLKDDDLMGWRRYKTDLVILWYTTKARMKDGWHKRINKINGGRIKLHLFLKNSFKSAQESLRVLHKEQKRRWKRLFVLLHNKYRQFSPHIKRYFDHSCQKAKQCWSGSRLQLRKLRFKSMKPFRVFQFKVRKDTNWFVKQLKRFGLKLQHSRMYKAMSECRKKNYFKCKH
B2: Autophagy-related protein 39 (Saccharomyces cerevisiae), Q06159 (parent)
chain: B1 partner
partner: B1 chain
B3: Autophagy-related protein 39 (Saccharomyces cerevisiae), Q06159 (parent)
chain: B1 partner
partner: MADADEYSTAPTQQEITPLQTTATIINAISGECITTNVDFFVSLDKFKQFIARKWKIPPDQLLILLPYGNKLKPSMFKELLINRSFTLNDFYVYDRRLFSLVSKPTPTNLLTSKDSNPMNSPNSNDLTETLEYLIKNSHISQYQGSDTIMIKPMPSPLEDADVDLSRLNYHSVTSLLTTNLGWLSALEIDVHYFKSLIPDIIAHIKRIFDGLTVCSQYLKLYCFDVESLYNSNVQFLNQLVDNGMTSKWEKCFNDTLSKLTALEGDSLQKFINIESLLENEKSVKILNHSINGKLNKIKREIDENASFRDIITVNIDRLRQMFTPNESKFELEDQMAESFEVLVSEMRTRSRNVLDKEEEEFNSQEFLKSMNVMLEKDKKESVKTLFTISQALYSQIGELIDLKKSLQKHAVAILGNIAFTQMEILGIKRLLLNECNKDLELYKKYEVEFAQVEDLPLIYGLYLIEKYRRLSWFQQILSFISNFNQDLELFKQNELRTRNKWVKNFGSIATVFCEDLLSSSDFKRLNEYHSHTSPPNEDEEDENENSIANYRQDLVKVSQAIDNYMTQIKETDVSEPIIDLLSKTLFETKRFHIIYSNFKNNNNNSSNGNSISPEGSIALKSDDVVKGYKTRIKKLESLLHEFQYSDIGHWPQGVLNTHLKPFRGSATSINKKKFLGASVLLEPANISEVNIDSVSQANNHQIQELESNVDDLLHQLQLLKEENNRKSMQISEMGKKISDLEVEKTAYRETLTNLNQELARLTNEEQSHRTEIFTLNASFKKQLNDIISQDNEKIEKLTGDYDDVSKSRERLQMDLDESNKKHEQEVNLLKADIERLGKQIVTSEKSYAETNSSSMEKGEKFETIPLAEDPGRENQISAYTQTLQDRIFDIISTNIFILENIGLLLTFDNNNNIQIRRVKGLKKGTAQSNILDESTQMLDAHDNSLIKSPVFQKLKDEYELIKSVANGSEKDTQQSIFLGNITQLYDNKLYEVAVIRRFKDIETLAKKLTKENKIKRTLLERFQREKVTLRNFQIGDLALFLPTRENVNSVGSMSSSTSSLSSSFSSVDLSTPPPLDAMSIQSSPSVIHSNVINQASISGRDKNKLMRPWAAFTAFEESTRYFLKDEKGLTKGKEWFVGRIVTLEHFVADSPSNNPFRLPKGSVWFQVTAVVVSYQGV
B4: Autophagy-related protein 40 (Saccharomyces cerevisiae), Q99325 (parent)
chain: MFNLILWPLFLLTSVAIPLQLTLEVVYLTSSVDFSKASAAKTATSLGQSPVVITIYKSLLKYWSLYEFIHFIYLYTPIDAFLNFLPFTSLLMSFGSICLTRELVYDFIAFMESQNKLTGFLNKITEPNFNSYLLFSSIYNIWFADDTNDKFLFGKLTQILISVTKRYEFPRTFYLAKVSDFLQNLILTRLRPFVTEQPQGDKNRYQNGDRESTKNGAAYQKSSQQSSSFEQNFTSTEFPNDYDFMEDILDETTELD
partner: B1 chain
B5: Autophagy-related protein 8 (Saccharomyces cerevisiae), P38182 (parent)
chain: B1 chain
partner: B4 chain

One assay covers variants of B1. The settings on record: with atg39_yeast ATG39, Q06159.
On to MKSTFKSEYPFEKRKAESERIADRFKNRIPVICEKAEKSDIPEIDKRKYLVAADLTVGQFVYVIRKAIMLPPEKAIFIFVNDTLPPTAALMSAIYQEHKDKDGFLYVTYSGENTFGR [P52A;R67A], for which the “effect of a mutation on the interaction” value is given as “disrupting interaction strength”.

The next assay covers variants of B1. The settings on record: with atg39_yeast ATG39, Q06159. This is another data set of the same source.
On to MKSTFKSEYPFEKRKAESERIADRFKNRIPVICEKAEKSDIPEIDKRKYLVAADLTVGQFVYVIRKAIMLPPEKAIFIFVNDTLPPTAALMSAIYQEHKDKDGFLYVTYSGENTFGR [P52A;R67A], for which the “effect of a mutation on the interaction” value is listed as “decreasing interaction strength”.

In a further assay the parent is B2. Particulars: with atg8_yeast ATG8, P38182.
Regarding MSEEDDHANLARLRRLRKGREGEEQSSKSEISLDSLHESSFAGEDDEDFDADVLSNTSSEESAQMNRIYDFRTSNEFSNAGVNIDQTGVPTISESFDTLSGSNVGGTVLPSMEGSKLKDSTIRNSSTLSDHIIDKSEGKSAKLKMWHVIMLSSLLSMTFSYLALEYSLTGDVLAGFKSQQSLRNNERKLLYGNIDFVDKKSYDSSSDSLSQWAPSGKYYVDFDNHIAYPLKDDDLMGWRRYKTDLVILWYTTKARMKDGWHKRINKINGGRIKLHLFLKNSFKSAQESLRVLHKEQKRRWKRLFVLLHNKYRQFSPHIKRYFDHSCQKAKQCWSGSRLQLRKLRFKSMKPFRVFQFKVRKDTNWFVKQLKRFGLKLQHSRMYKAMSECRKKNYFKCKH [W8A;V11A], the “effect of a mutation on the interaction” value is “disrupting interaction strength”.

The variants in another assay derive from B3. Particulars: with atg11_yeast ATG11, Q12527.
MSEEDDHWNLVRLRRLRKGREGEEQSSKSEISLDSLHESSFAGEDDEDFDAAAAAAAAAEESAQMNRIYDFRTSNEFSNAGVNIDQTGVPTISESFDTLSGSNVGGTVLPSMEGSKLKDSTIRNSSTLSDHIIDKSEGKSAKLKMWHVIMLSSLLSMTFSYLALEYSLTGDVLAGFKSQQSLRNNERKLLYGNIDFVDKKSYDSSSDSLSQWAPSGKYYVDFDNHIAYPLKDDDLMGWRRYKTDLVILWYTTKARMKDGWHKRINKINGGRIKLHLFLKNSFKSAQESLRVLHKEQKRRWKRLFVLLHNKYRQFSPHIKRYFDHSCQKAKQCWSGSRLQLRKLRFKSMKPFRVFQFKVRKDTNWFVKQLKRFGLKLQHSRMYKAMSECRKKNYFKCKH [D52A;V53A;L54A;S55A;N56A;T57A;S58A;S59A]: the “effect of a mutation on the interaction” value is “disrupting interaction strength”.

Variants of B4 are the subject of the next assay. Particulars: with atg8_yeast ATG8, P38182.
With MFNLILWPLFLLTSVAIPLQLTLEVVYLTSSVDFSKASAAKTATSLGQSPVVITIYKSLLKYWSLYEFIHFIYLYTPIDAFLNFLPFTSLLMSFGSICLTRELVYDFIAFMESQNKLTGFLNKITEPNFNSYLLFSSIYNIWFADDTNDKFLFGKLTQILISVTKRYEFPRTFYLAKVSDFLQNLILTRLRPFVTEQPQGDKNRYQNGDRESTKNGAAYQKSSQQSSSFEQNFTSTEFPNDADFAEDILDETTELD [Y242A;M245A], the “effect of a mutation on the interaction” value is on record as “disrupting interaction strength”.

Variants of B5 are the subject of the next assay. The settings on record: with atg40_yeast ATG40, Q99325.
MKSTFKSEYPFEKRKAESERIADRFKNRIPVICEKAEKSDIPEIDKRKYLVAADLTVGQFVYVIRKAIMLPPEKAIFIFVNDTLPPTAALMSAIYQEHKDKDGFLYVTYSGENTFGR [P52A;R67A]: the “effect of a mutation on the interaction” value is “disrupting interaction strength”.
